# Test results from PMC9482650, “Quantitative fragmentomics allow affinity mapping of interactomes” (Nature Communications, 2022).
# T1: MPP6, Q9NZW5
# T1 sequence (Q9NZW5 125-219, limits assumed, looked up): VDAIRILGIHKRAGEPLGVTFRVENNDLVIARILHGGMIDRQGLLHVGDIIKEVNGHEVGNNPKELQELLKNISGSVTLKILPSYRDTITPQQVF
# T2: PTPN13_1, Q12923
# T2 sequence (Q12923 1088-1188, limits assumed, looked up): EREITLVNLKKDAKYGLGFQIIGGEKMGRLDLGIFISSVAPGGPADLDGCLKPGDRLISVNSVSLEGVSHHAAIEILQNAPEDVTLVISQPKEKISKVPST
# T3: ARHGEF11, O15085
# T3 sequence (O15085 42-136, limits assumed, looked up): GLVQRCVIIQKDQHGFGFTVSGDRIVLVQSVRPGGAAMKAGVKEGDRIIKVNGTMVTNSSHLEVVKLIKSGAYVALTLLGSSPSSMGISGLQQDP
# T4: GRIP1_5, Q9Y3R0
# T4 sequence (Q9Y3R0 568-668, limits assumed, looked up): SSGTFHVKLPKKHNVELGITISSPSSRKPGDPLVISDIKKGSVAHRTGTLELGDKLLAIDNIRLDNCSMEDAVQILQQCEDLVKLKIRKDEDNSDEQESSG
# T5: PCLO, Q9Y6V0
# T5 sequence (Q9Y6V0 4491-4600, limits assumed, looked up): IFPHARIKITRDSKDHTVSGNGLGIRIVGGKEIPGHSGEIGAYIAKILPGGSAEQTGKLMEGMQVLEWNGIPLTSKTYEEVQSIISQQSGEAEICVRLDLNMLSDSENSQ
# T6: MPP7, Q5T2T1
# T6 sequence (Q5T2T1 134-230, limits assumed, looked up): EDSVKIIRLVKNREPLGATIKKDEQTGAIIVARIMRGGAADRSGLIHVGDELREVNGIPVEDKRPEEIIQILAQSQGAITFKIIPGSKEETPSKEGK
# T7: GRIP1_7, Q9Y3R0
# T7 sequence (Q9Y3R0 999-1096, limits assumed, looked up): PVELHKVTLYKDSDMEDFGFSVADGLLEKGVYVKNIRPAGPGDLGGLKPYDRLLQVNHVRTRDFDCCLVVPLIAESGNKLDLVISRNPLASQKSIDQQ
# T8: LIN7A, O14910
# T8 sequence (O14910 103-200, limits assumed, looked up): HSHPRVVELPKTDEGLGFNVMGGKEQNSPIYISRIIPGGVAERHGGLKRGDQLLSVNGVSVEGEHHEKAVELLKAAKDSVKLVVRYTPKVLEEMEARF
# T9: PDZRN3_1, Q9UPQ7
# T9 sequence (Q9UPQ7 244-349, limits assumed, looked up): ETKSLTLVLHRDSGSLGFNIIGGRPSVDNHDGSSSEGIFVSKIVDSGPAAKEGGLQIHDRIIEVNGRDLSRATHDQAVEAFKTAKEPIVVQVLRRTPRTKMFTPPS
# T10: SYNJ2BP, P57105
# T10 sequence (P57105 8-110, limits assumed, looked up): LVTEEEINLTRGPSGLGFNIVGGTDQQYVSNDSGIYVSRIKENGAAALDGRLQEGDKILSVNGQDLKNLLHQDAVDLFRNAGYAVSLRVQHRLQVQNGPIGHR
# Tests used:
# Experiment in all cases: holdup assay
# Design in all cases: key: below the threshold = too weak to quantify, mostly under pKd 3.1 to 4
# Conditions in all cases: plain residues with an end cap or a label only (N-terminal biotin on a linker: ado-ado)
# MAST2, Q6P0Q8 = biological target: MAST2, Q6P0Q8
# MPP6, Q9NZW5 = biological target: T1, MPP6, Q9NZW5
# Inadl_4, Q8NI35 = biological target: Inadl_4, Q8NI35
# PTPN13_1, Q12923 = biological target: T2, PTPN13_1, Q12923
# GIPC2, Q8TF65 = biological target: GIPC2, Q8TF65
# GRID2IP_1, A4D2P6 = biological target: GRID2IP_1, A4D2P6
# FRMPD2_1, Q68DX3 = biological target: FRMPD2_1, Q68DX3
# ARHGEF11, O15085 = biological target: T3, ARHGEF11, O15085
# GRIP1_5, Q9Y3R0 = biological target: T4, GRIP1_5, Q9Y3R0
# MAGI1_1, Q96QZ7 = biological target: MAGI1_1, Q96QZ7
# AHNAK1, Q09666 = biological target: AHNAK1, Q09666
# DLG4_2, P78352 = biological target: DLG4_2, P78352
# SCRIB_2, Q14160 = biological target: SCRIB_2, Q14160
# PCLO, Q9Y6V0 = biological target: T5, PCLO, Q9Y6V0
# MPP7, Q5T2T1 = biological target: T6, MPP7, Q5T2T1
# HTRA1, Q92743 = biological target: HTRA1, Q92743
# GRIP2_6, Q9C0E4 = biological target: GRIP2_6, Q9C0E4
# GRIP2_3, Q9C0E4 = biological target: GRIP2_3, Q9C0E4
# GRIP1_7, Q9Y3R0 = biological target: T7, GRIP1_7, Q9Y3R0
# LIN7A, O14910 = biological target: T8, LIN7A, O14910
# MAGI2_5, Q86UL8 = biological target: MAGI2_5, Q86UL8
# MAGI1_2, Q96QZ7 = biological target: MAGI1_2, Q96QZ7
# PDZRN3_1, Q9UPQ7 = biological target: T9, PDZRN3_1, Q9UPQ7
# MAGI2_3, Q86UL8 = biological target: MAGI2_3, Q86UL8
# NHERF4_2, Q86UT5 = biological target: NHERF4_2, Q86UT5
# GRASP, Q7Z6J2 = biological target: GRASP, Q7Z6J2
# SYNJ2BP, P57105 = biological target: T10, SYNJ2BP, P57105
# Sequence of GRID2IP_1, A4D2P6 (A4D2P6 1-87): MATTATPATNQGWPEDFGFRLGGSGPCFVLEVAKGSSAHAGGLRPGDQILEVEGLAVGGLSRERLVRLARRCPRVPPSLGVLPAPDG
# Sequence of SCRIB_2, Q14160 (Q14160 857-960): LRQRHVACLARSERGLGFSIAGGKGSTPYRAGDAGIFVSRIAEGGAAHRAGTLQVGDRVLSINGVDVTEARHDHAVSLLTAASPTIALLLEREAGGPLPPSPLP
# Sequence of AHNAK1, Q09666 (Q09666 4-100): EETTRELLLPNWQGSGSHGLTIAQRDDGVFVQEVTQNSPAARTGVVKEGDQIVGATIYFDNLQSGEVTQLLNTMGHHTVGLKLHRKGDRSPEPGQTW
# Sequence of GIPC2, Q8TF65 (Q8TF65 112-203): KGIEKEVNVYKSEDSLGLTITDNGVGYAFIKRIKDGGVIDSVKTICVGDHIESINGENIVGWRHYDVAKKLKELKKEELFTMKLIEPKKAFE
# Sequence of MAGI1_2, Q96QZ7 (Q96QZ7 456-580): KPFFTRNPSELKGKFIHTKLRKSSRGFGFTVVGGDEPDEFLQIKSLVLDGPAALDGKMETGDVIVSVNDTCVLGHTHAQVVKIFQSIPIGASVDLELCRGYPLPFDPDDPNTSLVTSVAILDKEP
# Sequence of MAST2, Q6P0Q8 (Q6P0Q8 1099-1202): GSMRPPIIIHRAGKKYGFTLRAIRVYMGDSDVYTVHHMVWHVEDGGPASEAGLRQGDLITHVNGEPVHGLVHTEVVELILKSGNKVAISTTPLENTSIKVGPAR
# Sequence of GRIP2_3, Q9C0E4 (Q9C0E4 238-339): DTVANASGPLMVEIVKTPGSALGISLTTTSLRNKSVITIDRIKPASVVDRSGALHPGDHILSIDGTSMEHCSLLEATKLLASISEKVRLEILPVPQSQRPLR
# Sequence of MAGI2_5, Q86UL8 (Q86UL8 915-1017): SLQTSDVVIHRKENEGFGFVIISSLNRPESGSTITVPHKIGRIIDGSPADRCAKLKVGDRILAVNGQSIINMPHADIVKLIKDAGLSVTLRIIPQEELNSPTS
# Sequence of Inadl_4, Q8NI35 (Q8NI35 547-651): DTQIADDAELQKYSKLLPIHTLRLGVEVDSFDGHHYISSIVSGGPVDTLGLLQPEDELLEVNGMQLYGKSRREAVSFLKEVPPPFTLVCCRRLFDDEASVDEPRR
# Sequence of FRMPD2_1, Q68DX3 (Q68DX3 770-861): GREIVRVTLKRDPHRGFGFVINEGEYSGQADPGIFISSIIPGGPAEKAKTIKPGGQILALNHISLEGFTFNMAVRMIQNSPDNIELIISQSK
# Sequence of DLG4_2, P78352 (P78352 155-259): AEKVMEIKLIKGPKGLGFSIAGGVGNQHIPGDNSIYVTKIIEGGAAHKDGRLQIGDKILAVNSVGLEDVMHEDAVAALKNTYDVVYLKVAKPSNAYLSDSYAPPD
# Sequence of GRIP2_6, Q9C0E4 (Q9C0E4 648-740): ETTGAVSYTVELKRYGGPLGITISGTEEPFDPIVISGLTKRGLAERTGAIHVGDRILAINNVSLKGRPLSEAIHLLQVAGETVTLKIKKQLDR
# Sequence of MAGI1_1, Q96QZ7 (Q96QZ7 1-106): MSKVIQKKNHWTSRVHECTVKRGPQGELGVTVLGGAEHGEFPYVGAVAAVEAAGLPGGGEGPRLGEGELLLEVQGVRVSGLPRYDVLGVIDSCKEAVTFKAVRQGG
# Sequence of HTRA1, Q92743 (Q92743 360-477): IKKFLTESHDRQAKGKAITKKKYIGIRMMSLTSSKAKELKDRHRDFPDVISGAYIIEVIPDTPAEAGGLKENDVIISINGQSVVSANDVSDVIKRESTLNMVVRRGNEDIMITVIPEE
# Sequence of NHERF4_2, Q86UT5 (Q86UT5 220-308): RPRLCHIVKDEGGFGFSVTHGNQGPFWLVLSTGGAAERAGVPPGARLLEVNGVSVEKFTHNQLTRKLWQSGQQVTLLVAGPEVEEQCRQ
# Sequence of MAGI2_3, Q86UL8 (Q86UL8 600-682): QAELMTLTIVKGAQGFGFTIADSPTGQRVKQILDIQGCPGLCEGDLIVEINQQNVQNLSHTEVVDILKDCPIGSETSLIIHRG
# Sequence of GRASP, Q7Z6J2 (Q7Z6J2 96-193): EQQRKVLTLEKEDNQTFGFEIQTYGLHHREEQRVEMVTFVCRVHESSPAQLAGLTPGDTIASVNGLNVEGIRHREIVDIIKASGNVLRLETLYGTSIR
"pKd (MAST2, Q6P0Q8)","pKd (MPP6, Q9NZW5)","pKd (Inadl_4, Q8NI35)","pKd (PTPN13_1, Q12923)","pKd (GIPC2, Q8TF65)","pKd (GRID2IP_1, A4D2P6)","pKd (FRMPD2_1, Q68DX3)","pKd (ARHGEF11, O15085)","pKd (GRIP1_5, Q9Y3R0)","pKd (MAGI1_1, Q96QZ7)","pKd (AHNAK1, Q09666)","pKd (DLG4_2, P78352)","pKd (SCRIB_2, Q14160)","pKd (PCLO, Q9Y6V0)","pKd (MPP7, Q5T2T1)","pKd (HTRA1, Q92743)","pKd (GRIP2_6, Q9C0E4)","pKd (GRIP2_3, Q9C0E4)","pKd (GRIP1_7, Q9Y3R0)","pKd (LIN7A, O14910)",Binder,further results
5.61,below the threshold,below the threshold,below the threshold,3.86,below the threshold,below the threshold,3.94,below the threshold,below the threshold,below the threshold,4.67,4.16,below the threshold,below the threshold,3.76,below the threshold,below the threshold,below the threshold,3.52,"IQISELETNV [SLC1A7, O00341]","pKd (MAGI2_5, Q86UL8): 4.11; pKd (MAGI1_2, Q96QZ7): below the threshold; pKd (PDZRN3_1, Q9UPQ7): 3.84; pKd (MAGI2_3, Q86UL8): 3.96; pKd (NHERF4_2, Q86UT5): below the threshold; pKd (GRASP, Q7Z6J2): below the threshold; pKd (SYNJ2BP, P57105): 4.56"
4.21,below the threshold,below the threshold,3.59,below the threshold,below the threshold,below the threshold,3.89,below the threshold,below the threshold,below the threshold,below the threshold,below the threshold,below the threshold,below the threshold,4.32,below the threshold,below the threshold,below the threshold,below the threshold,"KSRPENGTVC [TMEM178B, H3BS89]","pKd (MAGI2_5, Q86UL8): below the threshold; pKd (MAGI1_2, Q96QZ7): below the threshold; pKd (PDZRN3_1, Q9UPQ7): below the threshold; pKd (MAGI2_3, Q86UL8): below the threshold; pKd (NHERF4_2, Q86UT5): below the threshold; pKd (GRASP, Q7Z6J2): below the threshold; pKd (SYNJ2BP, P57105): 3.93"
4.1,below the threshold,below the threshold,below the threshold,below the threshold,below the threshold,3.73,4.06,below the threshold,3.62,below the threshold,3.56,3.54,below the threshold,below the threshold,below the threshold,below the threshold,below the threshold,below the threshold,below the threshold,"TFSRRPKTRV [CD226, Q15762]","pKd (MAGI2_5, Q86UL8): below the threshold; pKd (MAGI1_2, Q96QZ7): 4.75; pKd (PDZRN3_1, Q9UPQ7): 3.48; pKd (MAGI2_3, Q86UL8): below the threshold; pKd (NHERF4_2, Q86UT5): below the threshold; pKd (GRASP, Q7Z6J2): 3.98; pKd (SYNJ2BP, P57105): below the threshold"
3.83,below the threshold,below the threshold,below the threshold,3.53,below the threshold,below the threshold,3.55,below the threshold,below the threshold,below the threshold,below the threshold,below the threshold,below the threshold,below the threshold,below the threshold,below the threshold,below the threshold,below the threshold,below the threshold,"QQGLLPHSSC [TYRO3, Q06418]","pKd (MAGI2_5, Q86UL8): below the threshold; pKd (MAGI1_2, Q96QZ7): below the threshold; pKd (PDZRN3_1, Q9UPQ7): below the threshold; pKd (MAGI2_3, Q86UL8): below the threshold; pKd (NHERF4_2, Q86UT5): below the threshold; pKd (GRASP, Q7Z6J2): 3.97; pKd (SYNJ2BP, P57105): below the threshold"
4.88,below the threshold,below the threshold,below the threshold,4.18,3.66,3.79,4.25,below the threshold,below the threshold,below the threshold,4.94,4.01,below the threshold,below the threshold,4.34,below the threshold,below the threshold,below the threshold,3.72,"TNSKQGETTV [FZD1, Q9UP38]","pKd (MAGI2_5, Q86UL8): below the threshold; pKd (MAGI1_2, Q96QZ7): 3.82; pKd (PDZRN3_1, Q9UPQ7): 3.85; pKd (MAGI2_3, Q86UL8): 3.83; pKd (NHERF4_2, Q86UT5): below the threshold; pKd (GRASP, Q7Z6J2): below the threshold; pKd (SYNJ2BP, P57105): 4.7"
